Experimental data as given in IntAct's records for PubMed 11801737.

B1: Protein phosphatase 1 regulatory subunit SDS22 (Saccharomyces cerevisiae), P36047 (parent)
chain: MDKNSVNKDSEEKDERHKIEVVDDTNPDFITADSELTQDLPDDVEVIDLVHLKIKSLEDLNLYRFKNLKQLCLRQNLIESISEVEVLPHDKIVDLDFYDNKIKHISSNVNKLTKLTSLDLSFNKIKHIKNLENLTDLENLYFVQNSISKIENLSTLKSLKNLELGGNKVHSIEPDSFEGLSNLEEIWLGKNSIPRLINLHPLKNLKILSIQSNKLKKIENLEELTNLEELYLSHNFITKIEGLEKNLKLTTLDVTSNKITSLENLNHLSNLTDIWASFNKIDQSFESLGENLSALSRLETIYLEGNPIQLENKTSYRRKLTMNLPPSLQKIDATYIRG

Variants of: B1
Settings: with pp12_yeast GLC7, P32598
Sequence of pp12_yeast GLC7, P32598 (P32598 whole entry): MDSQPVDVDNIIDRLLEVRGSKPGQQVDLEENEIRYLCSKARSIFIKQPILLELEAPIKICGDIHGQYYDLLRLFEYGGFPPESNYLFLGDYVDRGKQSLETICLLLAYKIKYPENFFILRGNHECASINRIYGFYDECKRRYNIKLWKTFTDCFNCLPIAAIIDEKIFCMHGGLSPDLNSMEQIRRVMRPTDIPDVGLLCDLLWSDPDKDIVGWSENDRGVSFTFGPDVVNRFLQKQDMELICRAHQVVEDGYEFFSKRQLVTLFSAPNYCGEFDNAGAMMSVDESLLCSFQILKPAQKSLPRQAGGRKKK

| effect of a mutation on the interaction | Variant |
| --- | --- |
| decreasing interaction strength | I54T;I193T |
